Read-outs that look alike come from different tables or passages of the source.
Legend:
Experiment in all cases: cell-based or functional assay
[1] = target: T1, FGF receptor/BKL complex on HEK293 cells overexpressing human beta-klotho (BKL) (human, UniProt Q86Z14 1-1044)
[2] = target: T2, FGFR1c receptor/BKL complex on differentiated mouse 3T3-L1 adipocytes (mouse, UniProt P16092 22-822; Q99N32 1-1043)
[3] = target: T1, FGF receptor/BKL complex on HEK293 …; remark: listed apart in the source
[4] = target: T1, FGF receptor/BKL complex on HEK293 …; remark: listed apart in the source
[5] = target: T2, FGFR1c receptor/BKL complex on …; remark: listed apart in the source

T1 sequence (Q86Z14 whole entry, one chain of several): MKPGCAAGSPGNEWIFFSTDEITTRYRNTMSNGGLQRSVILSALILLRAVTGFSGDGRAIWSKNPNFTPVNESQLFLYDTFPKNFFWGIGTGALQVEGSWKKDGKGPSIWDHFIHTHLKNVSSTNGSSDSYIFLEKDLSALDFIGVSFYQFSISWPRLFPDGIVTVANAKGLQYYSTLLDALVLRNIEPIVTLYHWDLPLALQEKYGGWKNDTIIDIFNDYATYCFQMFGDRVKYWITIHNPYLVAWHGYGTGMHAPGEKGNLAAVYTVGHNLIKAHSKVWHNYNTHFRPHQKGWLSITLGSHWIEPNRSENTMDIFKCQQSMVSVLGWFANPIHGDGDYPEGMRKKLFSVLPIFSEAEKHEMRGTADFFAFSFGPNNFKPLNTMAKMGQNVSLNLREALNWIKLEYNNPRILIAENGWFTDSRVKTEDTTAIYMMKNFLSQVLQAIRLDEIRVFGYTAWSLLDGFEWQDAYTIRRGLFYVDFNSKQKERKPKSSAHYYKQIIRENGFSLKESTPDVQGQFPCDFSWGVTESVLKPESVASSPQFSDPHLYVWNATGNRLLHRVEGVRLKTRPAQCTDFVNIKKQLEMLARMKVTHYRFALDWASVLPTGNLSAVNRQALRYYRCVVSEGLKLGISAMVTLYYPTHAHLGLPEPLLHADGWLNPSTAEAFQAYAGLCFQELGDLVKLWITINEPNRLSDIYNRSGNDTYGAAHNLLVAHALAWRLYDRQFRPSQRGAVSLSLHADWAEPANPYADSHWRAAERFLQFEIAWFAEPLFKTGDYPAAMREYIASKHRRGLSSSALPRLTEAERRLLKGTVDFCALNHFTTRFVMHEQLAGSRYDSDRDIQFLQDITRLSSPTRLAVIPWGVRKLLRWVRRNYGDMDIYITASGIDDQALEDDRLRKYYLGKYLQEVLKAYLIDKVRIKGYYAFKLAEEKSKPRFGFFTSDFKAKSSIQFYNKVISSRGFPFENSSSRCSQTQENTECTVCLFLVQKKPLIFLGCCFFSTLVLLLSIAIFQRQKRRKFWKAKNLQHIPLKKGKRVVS
T2 sequence (P16092 22-822, chain 1 of 2): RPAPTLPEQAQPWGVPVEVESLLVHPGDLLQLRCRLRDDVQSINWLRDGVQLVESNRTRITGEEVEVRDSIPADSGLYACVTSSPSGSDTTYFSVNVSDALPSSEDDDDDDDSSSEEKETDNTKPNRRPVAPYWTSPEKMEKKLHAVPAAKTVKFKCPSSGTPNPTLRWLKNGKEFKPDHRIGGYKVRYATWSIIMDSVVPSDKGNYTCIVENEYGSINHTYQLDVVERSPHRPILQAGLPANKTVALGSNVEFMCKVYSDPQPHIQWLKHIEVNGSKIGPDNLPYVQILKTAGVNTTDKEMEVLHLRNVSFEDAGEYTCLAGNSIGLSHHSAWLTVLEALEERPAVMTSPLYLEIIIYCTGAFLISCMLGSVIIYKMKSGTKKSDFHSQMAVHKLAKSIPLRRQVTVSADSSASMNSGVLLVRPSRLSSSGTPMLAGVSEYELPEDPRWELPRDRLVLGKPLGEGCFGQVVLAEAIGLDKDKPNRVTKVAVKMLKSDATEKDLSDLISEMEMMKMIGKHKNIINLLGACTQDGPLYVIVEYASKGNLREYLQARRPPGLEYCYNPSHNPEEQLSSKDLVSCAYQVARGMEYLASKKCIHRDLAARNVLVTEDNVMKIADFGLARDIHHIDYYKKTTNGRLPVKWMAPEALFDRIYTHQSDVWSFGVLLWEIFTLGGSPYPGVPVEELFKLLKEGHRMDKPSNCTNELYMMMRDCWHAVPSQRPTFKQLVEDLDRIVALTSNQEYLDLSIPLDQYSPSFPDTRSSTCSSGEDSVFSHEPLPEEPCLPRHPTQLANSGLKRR
T2 sequence (Q99N32 whole entry, chain 2 of 2): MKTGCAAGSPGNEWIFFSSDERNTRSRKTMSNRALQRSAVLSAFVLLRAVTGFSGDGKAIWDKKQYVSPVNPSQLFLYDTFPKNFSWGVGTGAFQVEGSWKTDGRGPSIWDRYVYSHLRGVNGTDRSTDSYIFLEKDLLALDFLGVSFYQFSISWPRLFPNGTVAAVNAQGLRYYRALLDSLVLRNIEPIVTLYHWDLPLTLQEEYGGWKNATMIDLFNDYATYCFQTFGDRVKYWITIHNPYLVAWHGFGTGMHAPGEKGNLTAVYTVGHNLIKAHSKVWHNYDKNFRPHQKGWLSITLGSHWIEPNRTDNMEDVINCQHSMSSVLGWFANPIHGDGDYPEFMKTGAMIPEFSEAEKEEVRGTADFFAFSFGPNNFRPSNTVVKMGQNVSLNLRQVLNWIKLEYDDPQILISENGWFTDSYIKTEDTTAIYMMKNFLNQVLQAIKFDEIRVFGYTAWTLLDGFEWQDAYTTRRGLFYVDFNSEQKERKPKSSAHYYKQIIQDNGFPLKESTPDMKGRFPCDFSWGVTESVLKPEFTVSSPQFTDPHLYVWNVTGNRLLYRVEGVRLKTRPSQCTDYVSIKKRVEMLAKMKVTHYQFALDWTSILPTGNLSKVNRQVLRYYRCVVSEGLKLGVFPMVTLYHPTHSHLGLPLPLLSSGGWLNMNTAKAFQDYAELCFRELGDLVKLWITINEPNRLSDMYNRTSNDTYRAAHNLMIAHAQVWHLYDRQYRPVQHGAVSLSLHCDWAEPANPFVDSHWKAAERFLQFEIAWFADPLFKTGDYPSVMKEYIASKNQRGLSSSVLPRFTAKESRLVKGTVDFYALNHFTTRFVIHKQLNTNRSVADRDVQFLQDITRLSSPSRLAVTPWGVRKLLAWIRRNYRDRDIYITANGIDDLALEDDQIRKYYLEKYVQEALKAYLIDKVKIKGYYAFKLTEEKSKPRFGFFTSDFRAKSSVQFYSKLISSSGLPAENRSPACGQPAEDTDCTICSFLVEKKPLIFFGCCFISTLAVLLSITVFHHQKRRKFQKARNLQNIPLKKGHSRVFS

B1: MetFGF21 (ligand)
chain: MHPIPDSSPLLQFGGQVRQRYLYTDDAQQTEAHLEIREDGTVGGAADQSPESLLQLKALKPGVIQILGVKTSRFLCQRPDGALYGSLHFDPEACSFRELLLEDGYNVYQSEAHGLPLHLPGNKSPHRDPAPRGPARFLPLPGLPPALPEPPGILAPQPPDVGSSDPLSMVGPSQGRSPSYAS
- EC50 (nM), pERK, HEK293/BKL cells [1]: 1.8 nM
- Glucose uptake EC50 (nM), 3T3-L1 adipocytes [2]: 1.2 nM

B2: Ala[Gln121,Leu168,Cys171]FGF21 (ligand)
chain: AHPIPDSSPLLQFGGQVRQRYLYTDDAQQTEAHLEIREDGTVGGAADQSPESLLQLKALKPGVIQILGVKTSRFLCQRPDGALYGSLHFDPEACSFRELLLEDGYNVYQSEAHGLPLHLPGQKSPHRDPAPRGPARFLPLPGLPPALPEPPGILAPQPPDVGSSDPLSLVGCSQGRSPSYAS
- EC50 (nM), pERK, HEK293/BKL cells [3]: 8 nM

B3: S{Beta-181}-[2-[2-[[2-[2-[2-[[2-[2-[2-[[(4S)-4-carboxy-4-(17-carboxyheptadecanoyl-amino)butanoyl]amino]ethoxy]ethoxy]acetyl]amino]ethoxy]ethoxy]acetyl]amino]-et … (ligand)
chain: MHPIPDSSPLLQFGGQVRQRYLYTDDAQQTEAHLEIREDGTVGGAADQSPESLLQLKALKPGVIQILGVKTSRFLCQRPDGALYGSLHFDPEACSFRELLLEDGYNVYQSEAHGLPLHLPGNKSPHRDPAPRGPARFLPLPGLPPALPEPPGILAPQPPDVGSSDPLSMVGPSQGRSPSYAC
modifications: Cys181 (numbering of mature human FGF21): side chain on the sulfur atom; protractor C18 diacid; reagent of Example 4.5
- EC50 (0.1% HSA) (nM), pERK, HEK293/BKL cells [4]: 71 nM
- EC50 (nM), pERK, HEK293/BKL cells [4]: 16 nM
- Glucose uptake EC50 (nM), 3T3-L1 adipocytes [5]: 37 nM

From patent US20180140673A1 (Novo Nordisk, published 2018)
